The values below come from patent US20190071490A1, “Preventing Post-Ictal Headaches” (Beth Israel Deaconess Medical Center, Inc., priority 2017, published 2019).

Assay [1] deals with T1, human α-CGRP (Homo sapiens, UniProt P06881).
T1 construct: 1-37 (WT); purchased GenScript Corporation or Global Peptide Services
T1 sequence (P06881 83-119 limits assumed): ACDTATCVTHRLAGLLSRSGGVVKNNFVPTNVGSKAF
The experiment in a line: Biacore SPR affinity of Fab fragments to N-biotinylated human α-CGRP on SA chip. The assay is classed as binding. The settings on record: 37° C., screening mode except underlined values. As to the method:
(§1) Affinity determination of the Fabs. Affinities of the anti-CGRP monoclonal antibodies were determined at either 25° C. or 37° C. using the BIACORE3000™ surface plasmon resonance (SPR) system (Biacore, INC, Piscataway N.J.) with the manufacture's own running buffer, HBS-EP (10 mM HEPES pH 7.4, 150 mM NaCl, 3 mM EDTA, 0.005% v/v polysorbate P20). Affinity was determined by capturing N-terminally biotinylated CGRP peptides (custom ordered from GenScript Corporation, New Jersey or Global Peptide Services, Colorado) via pre-immobilized streptavidin on SA chip and measuring binding kinetics of antibody Fab titrated across the CGRP surface. Biotinylated CGRP was diluted into HBS-EP and injected over the chip at a concentration of less than 0.001 mg/ml. Using variable flow time across the individual chip channels, two ranges of antigen density were achieved: <50 response units (RU) for detailed kinetic studies and about 800 RU for concentration studies and screening. […] After each binding cycle, surfaces were regenerated with 25 mM NaOH in 25% v/v ethanol, which was tolerated over hundreds of cycles. Kinetic association rate (kon) and dissociation rate (koff) were obtained simultaneously by fitting the data to a 1:1 Langmuir binding model (Karlsson et al. (1994). Methods Enzymology 6. 99-110) using the BIAevaluation program. Global equilibrium dissociation constants (KD) or “affinities” were calculated from the ratio KD=koff/kon.
(§2) Biacore assay for affinity determination. […] All Biacore assays were conducted in HBS-EP running buffer (10 mM HEPES pH 7.4, 150 mM NaCl, 3 mM EDTA, 0.005% v/v polysorbate P20). CGRP surfaces were prepared by diluting the N-biotinylated CGRP to a concentration of less than 0.001 mg/mL into HBS-EP buffer and injecting it across the SA sensor chip using variable contact times. Low capacity surfaces, corresponding to capture levels <50 response units (RU) were used for high-resolution kinetic studies, whereas high capacity surfaces (about 800 RU of captured CGRP) were used for concentration studies, screening, and solution affinity determinations. […] Samples were typically injected for 1 minute at 100 μL/min and dissociation times of at least 10 minutes were allowed. After each binding cycle, surfaces were regenerated with 25 mM NaOH in 25% v/v ethanol, which was tolerated over hundreds of cycles. An entire titration series (typically generated in duplicate) was fit globally to a 1:1 Langmuir binding model using the BIAevaluation program. This returned a unique pair of association and dissociation kinetic rate constants (respectively, kon and koff) for each binding interaction, whose ratio gave the equilibrium dissociation constant (KD=koff/kon).
(§3) High-resolution analysis of binding interactions with extremely slow off rates. […] The protocol described above was used with the following modifications. The association rate constant (kon) was determined by injecting a 2-fold titration series (in duplicate) spanning 550 nM-1 nM for 30 seconds at 100 μL/min and allowing only a 30 second dissociation phase. The dissociation rate constant (koff) was determined by injecting three concentrations (high, medium, and low) of the same titration series in duplicate for 30 seconds and allowing a 2-hour dissociation phase. The affinity (KD) of each interaction was obtained by combining the kon and koff values obtained in both types of experiments, as shown in Table 4.

In assay [2] the target is T2, rat α-CGRP (Rattus norvegicus, UniProt P01256).
T2 construct: rat α (1-37); purchased GenScript Corporation or Global Peptide Services
T2 sequence (P01256 83-119 limits assumed): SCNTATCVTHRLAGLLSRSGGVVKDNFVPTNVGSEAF
The experiment in a line: Biacore SPR affinity of Fab fragments to N-biotinylated rat α-CGRP on SA chip. The assay is classed as binding. The settings on record: 37° C., screening mode except underlined values. The procedure: as §1, §2, §3

B1: M46: G1 variant; L1 R28N; L2 G50A L56T; H2 E54K A57N S58E H61F; HC-FW3 L99T A100V (antibody, V domains shown)
VH: EVQLVESGGGLVQPGGSLRLSCAASGFTFSNYWISWVRQAPGKGLEWVAEIRSKSDNEATFYAEAVKGRFTISRDNAKNSLYLQMNSLRAEDTAVYYCTVYFDYGLAIQNYWGQGTLVTVSS
VL: EIVLTQSPATLSLSPGERATLSCKASKNVTTYVSWYQQKPGQAPRLLIYAASNRYTGIPARFSGSGSGTDFTLTISSLEPEDFAVYYCSQSYNYPYTFGQGTKLEIK
For the molecule B1, the “α-human koff” value in assay [1] stood at 0.000539 s⁻¹. Moreover, in assay [2], the “α-rat koff” value came out at 0.00294 s⁻¹.

B2: M53: G1 variant; L1 R28N; L2 L561; H2 E54K A57N S58G; HC-FW3 L99T A100V (antibody, V domains shown)
VH: EVQLVESGGGLVQPGGSLRLSCAASGFTFSNYWISWVRQAPGKGLEWVAEIRSKSDNGATHYAEAVKGRFTISRDNAKNSLYLQMNSLRAEDTAVYYCTVYFDYGLAIQNYWGQGTLVTVSS
VL: EIVLTQSPATLSLSPGERATLSCKASKNVTTYVSWYQQKPGQAPRLLIYGASNRYIGIPARFSGSGSGTDFTLTISSLEPEDFAVYYCSQSYNYPYTFGQGTKLEIK
Consider B2, for which, in assay [1], the “α-human koff” value is 0.000374 s⁻¹. In addition, the “α-rat koff” value in assay [2] stood at 0.00191 s⁻¹.

B3: M50: G1 variant; L1 R28N; L2 G50A L56T; H2 E54K A57R; HC-FW3 L99T A100V (antibody, V domains shown)
VH: EVQLVESGGGLVQPGGSLRLSCAASGFTFSNYWISWVRQAPGKGLEWVAEIRSKSDRSATHYAEAVKGRFTISRDNAKNSLYLQMNSLRAEDTAVYYCTVYFDYGLAIQNYWGQGTLVTVSS
VL: EIVLTQSPATLSLSPGERATLSCKASKNVTTYVSWYQQKPGQAPRLLIYAASNRYTGIPARFSGSGSGTDFTLTISSLEPEDFAVYYCSQSYNYPYTFGQGTKLEIK
In the case of B3, the “α-human koff” value in assay [1] was 0.000406 s⁻¹. Moreover, the “α-rat koff” value in assay [2] was determined as 0.0053 s⁻¹.

B4: M47: G1 variant; L1 R28N; L2 G50A L56T; H2 E54K A57N S58G; HC-FW3 L99T A100V (antibody, V domains shown)
VH: EVQLVESGGGLVQPGGSLRLSCAASGFTFSNYWISWVRQAPGKGLEWVAEIRSKSDNGATHYAEAVKGRFTISRDNAKNSLYLQMNSLRAEDTAVYYCTVYFDYGLAIQNYWGQGTLVTVSS
VL: EIVLTQSPATLSLSPGERATLSCKASKNVTTYVSWYQQKPGQAPRLLIYAASNRYTGIPARFSGSGSGTDFTLTISSLEPEDFAVYYCSQSYNYPYTFGQGTKLEIK
For B4, the “α-human koff” value in assay [1] came out at 0.000332 s⁻¹. Moreover, in assay [2], the “α-rat koff” value was found to be 0.00823 s⁻¹.

B5: M55: G1 variant; L1 R28N T30A; L2 L56S; H2 E54K A57N S58E E64D; HC-FW3 L99T A100V (antibody, V domains shown)
VH: EVQLVESGGGLVQPGGSLRLSCAASGFTFSNYWISWVRQAPGKGLEWVAEIRSKSDNEATHYADAVKGRFTISRDNAKNSLYLQMNSLRAEDTAVYYCTVYFDYGLAIQNYWGQGTLVTVSS
VL: EIVLTQSPATLSLSPGERATLSCKASKNVATYVSWYQQKPGQAPRLLIYGASNRYSGIPARFSGSGSGTDFTLTISSLEPEDFAVYYCSQSYNYPYTFGQGTKLEIK
In the case of B5, the “α-human koff” value in assay [1] is 0.000478 s⁻¹. The “α-rat koff” value in assay [2] is 0.00585 s⁻¹.

B6: M54: G1 variant; L1 R28N T30A; L2 G50A; H2 E54K A57N S58P; HC-FW3 L99T A100V (antibody, V domains shown)
VH: EVQLVESGGGLVQPGGSLRLSCAASGFTFSNYWISWVRQAPGKGLEWVAEIRSKSDNPATHYAEAVKGRFTISRDNAKNSLYLQMNSLRAEDTAVYYCTVYFDYGLAIQNYWGQGTLVTVSS
VL: EIVLTQSPATLSLSPGERATLSCKASKNVATYVSWYQQKPGQAPRLLIYAASNRYLGIPARFSGSGSGTDFTLTISSLEPEDFAVYYCSQSYNYPYTFGQGTKLEIK
As to B6, the “α-human koff” value in assay [1] was determined as 0.00179 s⁻¹. Further, the “α-rat koff” value in assay [2] is 0.00216 s⁻¹.

B7: M49: G1 variant; L1 R28N; L2 G50A L56T; H2 E54K A57N S58Y H61F; HC-FW3 L99T A100V (antibody, V domains shown)
VH: EVQLVESGGGLVQPGGSLRLSCAASGFTFSNYWISWVRQAPGKGLEWVAEIRSKSDNYATFYAEAVKGRFTISRDNAKNSLYLQMNSLRAEDTAVYYCTVYFDYGLAIQNYWGQGTLVTVSS
VL: EIVLTQSPATLSLSPGERATLSCKASKNVTTYVSWYQQKPGQAPRLLIYAASNRYTGIPARFSGSGSGTDFTLTISSLEPEDFAVYYCSQSYNYPYTFGQGTKLEIK
B7: the “α-human koff” value in assay [1] is 0.000595 s⁻¹. Besides, the “α-rat koff” value in assay [2] came to 0.0148 s⁻¹.

B8: M51: G1 variant; L1 R28N; L2 L561; H2 E54K A57G; HC-FW3 L99T A100V (antibody, V domains shown)
VH: EVQLVESGGGLVQPGGSLRLSCAASGFTFSNYWISWVRQAPGKGLEWVAEIRSKSDGSATHYAEAVKGRFTISRDNAKNSLYLQMNSLRAEDTAVYYCTVYFDYGLAIQNYWGQGTLVTVSS
VL: EIVLTQSPATLSLSPGERATLSCKASKNVTTYVSWYQQKPGQAPRLLIYGASNRYIGIPARFSGSGSGTDFTLTISSLEPEDFAVYYCSQSYNYPYTFGQGTKLEIK
B8: the “α-human koff” value in assay [1] is 0.000131 s⁻¹. The “α-rat koff” value in assay [2] was 0.00118 s⁻¹.

B9: M52: G1 variant; L1 R28N; L2 L561; H2 E54K A57N S58A; HC-FW3 L99T A100V (antibody, V domains shown)
VH: EVQLVESGGGLVQPGGSLRLSCAASGFTFSNYWISWVRQAPGKGLEWVAEIRSKSDNAATHYAEAVKGRFTISRDNAKNSLYLQMNSLRAEDTAVYYCTVYFDYGLAIQNYWGQGTLVTVSS
VL: EIVLTQSPATLSLSPGERATLSCKASKNVTTYVSWYQQKPGQAPRLLIYGASNRYIGIPARFSGSGSGTDFTLTISSLEPEDFAVYYCSQSYNYPYTFGQGTKLEIK
Regarding B9, the “α-human koff” value in assay [1] was 0.000281 s⁻¹. For the same molecule, the “α-rat koff” value in assay [2] is 0.00229 s⁻¹.

B10: M48: G1 variant; L1 R28N; L2 G50A L56T; H2 E54K A57N S58L; HC-FW3 L99T A100V (antibody, V domains shown)
VH: EVQLVESGGGLVQPGGSLRLSCAASGFTFSNYWISWVRQAPGKGLEWVAEIRSKSDNLATHYAEAVKGRFTISRDNAKNSLYLQMNSLRAEDTAVYYCTVYFDYGLAIQNYWGQGTLVTVSS
VL: EIVLTQSPATLSLSPGERATLSCKASKNVTTYVSWYQQKPGQAPRLLIYAASNRYTGIPARFSGSGSGTDFTLTISSLEPEDFAVYYCSQSYNYPYTFGQGTKLEIK
As for B10, in assay [1], the “α-human koff” value is 0.000842 s⁻¹. In addition, the “α-rat koff” value in assay [2] amounted to 0.0343 s⁻¹.

B11: M25: G1 variant; L1 R28N; HC-FW3 L99T A100V (antibody, V domains shown)
VH: EVQLVESGGGLVQPGGSLRLSCAASGFTFSNYWISWVRQAPGKGLEWVAEIRSESDASATHYAEAVKGRFTISRDNAKNSLYLQMNSLRAEDTAVYYCTVYFDYGLAIQNYWGQGTLVTVSS
VL: EIVLTQSPATLSLSPGERATLSCKASKNVTTYVSWYQQKPGQAPRLLIYGASNRYLGIPARFSGSGSGTDFTLTISSLEPEDFAVYYCSQSYNYPYTFGQGTKLEIK
Consider B11, for which the “α-rat koff” value in assay [2] came out at 0.0014 s⁻¹.

B12: M56: G1 variant; L1 R28N T30D; L2 L56S; H2 E54K A57N H61F; HC-FW3 L99T A100V (antibody, V domains shown)
VH: EVQLVESGGGLVQPGGSLRLSCAASGFTFSNYWISWVRQAPGKGLEWVAEIRSKSDNSATFYAEAVKGRFTISRDNAKNSLYLQMNSLRAEDTAVYYCTVYFDYGLAIQNYWGQGTLVTVSS
VL: EIVLTQSPATLSLSPGERATLSCKASKNVDTYVSWYQQKPGQAPRLLIYGASNRYSGIPARFSGSGSGTDFTLTISSLEPEDFAVYYCSQSYNYPYTFGQGTKLEIK
With B12, the “α-human koff” value in assay [1] was 0.000479 s⁻¹. For the same molecule, the “α-rat koff” value in assay [2] turned out to be 0.00935 s⁻¹.
